The nanobody polyreactivity screen of Harvey et al. (2022)

Assay: yeast display, Sf9 membrane polyspecificity reagent, FACS + sequencing; frameworks hold sequencing errors
In short: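 Nanobodies from a synthetic yeast display library (Saccharomyces cerevisiae BJ5465), induced 36–48 hours with galactose, were stained 1 hour at 4 °C with 10% biotinylated, detergent-solubilized Sf9 membrane reagent, enriched on streptavidin microbeads, then FACS-sorted. Anti-HA (expression) and streptavidin (reagent binding) fluorescence set low and high (top ~1%) gates. Polyreactivity labels come from the gate of origin. Genes were colony-PCR amplified, MiSeq 2 × 250 sequenced and filtered by CDR length.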

| Sequence | polyreactivity (PSR sort gate) |
| --- | --- |
| QVQLVESGGGLVQAGGSLRLSCAASRSTFVRNAMGWYREAPGKESELVAASSNVGSTYYADSVKGRFTISRDTAKNTVYFQMNILKPEDTAVYYCTKQLWYHKFNYWGQGTQVTVSA | low polyreactivity |
| QVQLVESGGGLVQAGGSLRLSCAASRSTFYRYTMGWYIQAPGKERELVADITGSGGRTYYADSVKGRFTISRDNAKNTVYLQMNSLIPEDTAVYYCNAAYVWYRARAGSEDYWGQGTQVTVSS | high polyreactivity |
| QVQLVESGGGLVQAGGSLRLSCAASSIFPSNAMGLYRPAPGKERELVAAISSGGSTNYADSVKGRFTISRDNAKNTVYLQMNSLKPEDTAVYYCAAVRYYRRRTGSYYHYDYWGQGTQVTVSS | low polyreactivity |
| QVQLVESGGGLVQAGGSLRLSCAASVFIFAIYAMGWYRQAPGKERELVADINSDGSTYYADSVKGRFTISRDNAKNTVYLQMNSLKPEDTAVYYCNAETAGHDMDYWGQGTQVTVSS | low polyreactivity |
| QVQLVESGGGLVQAGGSLRLSCAASVFIFGTNAMGWYRQAPGKERELVASISSTGGSTYYADSVKGRLTISRDNAKNTVYLQMNSLIPEDNAVSFCASDHYPEYIRYVPGVDYWGQGTQVTVSS | low polyreactivity |
| QVQLVESGGGLVQAGGSLRLSCAASVFIFGYYAMGWYRQAPGKERELVADISWSGVSTYYADSVKGRFTISRDNAKNTVYLQMNSLKPEDNAVYYCAVGYVLTGVFQARFDYWGQGTQVTVSS | high polyreactivity |
| QVQLVESGGGLVQAGGSLRLSCAASVFLPYTMGWYRQAPGKERELVAAITRGGSTYYADSVKGRFTISRDNAKNTVYLQMNSLKPEDTAVYYCAKRSTFAWRGYDYWGQGTEVTVSS | high polyreactivity |
| QVQLVESGGGLVQAGGSLRLSCAASVFTFPPYAMGWYRQAPGKERELVAAISSAGSTKYADSVKGRFTISRDNAKNTVYLQMNSLKPEDTAVYYCAARWARSYDYWGQGTQVTVSS | low polyreactivity |
| QVQLVESGGGLVQAGGSLRLSCAASVFTFSRYAMGWYRQAPGKERELVAAITRGGGNTYYADSVKGRFTISRDNAKNTVYLQMHSLNPEDTAVFYCNAQVGNFGYRSGGYDYWGQGTQVTVSS | high polyreactivity |
| QVQLVESGGGLVQAGGSLRLSCAASVFTLWLNAMGWYRQAPGKERELVAAITTSDDGTYYADSVKGRFTISRDNAKNTVYLQMNSLKPEDTAVYYCAADYYSVLYDYWGQGTQVTVSS | low polyreactivity |
| QVQLVESGGGLVQAGGSLRLSCAASVGIYSQNVRGWYRQAPGKEWELVAAISRRGGRTYYADSVKGRFKISRDNAKNTVYLQMNSLKPEDTAVYYCATLSPERRVYYTYSGLFEYWGQGTQVTVSS | high polyreactivity |
| QVQLVESGGGLVQAGGSLRLSCAASVIIFTRYAMGWYRQATGKERELVAGITRRGGSTYYADSVKGRFTISRDNAKNTVYLQMKSLKPEDTAVYYCNTYQRDYPYGVEDDSWGQGTEVTVSS | high polyreactivity |
| QVQLVESGGGLVQAGGSLRLSCAASVITFGRNTMGWYRQAPGKERELVAAISWNGDSTYYADSVKGRFTISRDNAKNTVYFQMNSLKPEDTAVYFCNADDVFLYQTDGLGDYWGQGTQVTVSS | low polyreactivity |
| QVQLVESGGGLVQAGGSLRLSCAASVLIMGYYAMGWYRQAPGKERELVAAISSTGSTNYADSVKGRFTISRDNAKNTVYLQMNTLKQEDTAVYYCAAVPPRKDYQHMDYWGQGTQVTVSS | low polyreactivity |
| QVQLVESGGGLVQAGGSLRLSCAASVRISVFNAMGWYRKPPGKESELVAGISNGGSTNYADSVKGRFTISRDNAKNTVYLQMNSLKPEDTAVYYCANDEPKVCRAFDYWGQGTQVTVSS | low polyreactivity |
| QVQLVESGGGLVQAGGSLRLSCAASVRTFWYNAMGWYRQAPGKERELVAVISSGAITYYADSVKGRFTISRDNAKNTVYLQMNSLKPEDTAVYYCNAQRRGTYYWGQGTQVTVSS | high polyreactivity |

| Sequence | polyreactivity (PSR sort gate) |
| --- | --- |
| QVQLVESGGGLVQAGGSLRLSCAASVSIFGVKVMGWYRQAPGKERELVAAIDVSDTSTYYADSVKGRFTISRDNAKNTVYLQMNSLKAEDTAVYYCAARRTRYPFQFDYWGQGTQVTVSS | low polyreactivity |
| QVQLVESGGGLVQAGGSLRLSCAASVSIFKVNAMGWYRQAPGKERELVAAISTSGSRTYYADSVKGRFTISRDNAKNTVYLQMNSLKPEDTAVYYCADDSYAGIVRYGYWGKGTQVTVSS | high polyreactivity |
| QVQLVESGGGLVQAGGSLRLSCAASVSNFPPYVMGWYRQAPGKERELVAAITWSSGSTYYADSVKGRFTISRDNAKNTVYLQMNRLKPEDTAVYYCAAVLPFKYDYWGQGTQVTVSS | low polyreactivity |
| QVQLVESGGGLVQAGGSLRLSCAASVSTFAYYAMGWYRQAPGKERELVAVISVSGDGTSTYYADSVKGRFTISRDNAKNTVYLQMNSLKPEDTAVYNCAAEQVLVGGHTYYLTYDYWGQGTQVTVSS | low polyreactivity |
| QVQLVESGGGLVQAGGSLRLSCAASVSTFSGYAMGWYRQAPGKERELVAAISSSGGGTYYADSVKGRFTISRDNAKNTVYLQMNSLKPEDTAVFYCAAYKYFLGFVWYDYWGQGTQVTVSS | high polyreactivity |
| QVQLVESGGGLVQAGGSLRLSCAASVSTIARYAMGRYRQAPGKERELVAAISRTGRTYYADSVKGRFTISRDNAKNTVYLQMNSLKPEDTAVYYCNAYYGPRGYGYWGQGTQVTVSS | high polyreactivity |
| QVQLVESGGGLVQAGGSLRLSCAASVSTLRYYAMGWYRQAPGKERELVAAISYSGGSTYYADSVKGRFTISRDNAKNTVYLQMNRLKPEDTAVYYCNAEWGWRRYGSSYVYWGQGTQVTVSS | high polyreactivity |
| QVQLVESGGGLVQAGGSLRLSCAASVYAMGWYRQAPGKERELVAAITDSGSTNYADSVKGRFTISRDNAKNTVYLQMNSLKPEDNAVYYCNADPYYATGSWARLPLYQYDYWGQGTQVTVSS | low polyreactivity |
| QVQLVESGGGLVQAGGSLRLSCAASVYGMGWYRQAPGKERELVAAISNGGTTYYADSVKGRFTISRDNAKNTVYLQMNSLKPEDTAVYYCARSYRSDGSRFGYWGQGTQVTVSS | low polyreactivity |
| QVQLVESGGGLVQAGGSLRLSCAATGFIVAWYAMGWYRQAPGKERELVAAISSSVGSTYYADSVKGRFTISRDIAKNTVYLQMNSLKPEDTAVYYCNADEYWASGYDPYDYWGQGTQVTVSS | low polyreactivity |
| QVQLVESGGGLVQAGGSLRLSCAATGFTFEYYAMGWYRKAPGKERELVAAITSGGSTNYADSVKVRFTISRDNAKNTVSLQKNSLKPEDTAVYYCATSGNNYYYALYGYWGQGTQVTVSS | low polyreactivity |
| QVQLVESGGGLVQAGGSLRLSCAATGFTFHHYVMGWYRHAHGKEREFVASIRWRGGSTYYADSVKGRFTISRDNAKNTVYLQMNSLKPEDTAVYYCAADSFTYWSWLHGYWGQGTQVTVSS | high polyreactivity |
| QVQLVESGGGLVQAGGSLRLSCAATGFTFRWYAMGWYRQAPGKERELVAAITSDDNTYYADSVKGRFTISRDNAKNTVYLQMNSLKPEDTAVYYCAAEYADYWTYIMGYWGQGTQVTVSS | low polyreactivity |
| QVQLVESGGGLVQAGGSLRLSCAATGHTFHGYAMGWYRPAPGKERELVAAITSTGGSTHYADSVKGRFTISRDNAKNTVYLQMNSLKPEDTAVYYCAKRSYGLTRAYSAGNYWGQGTQVTVSS | low polyreactivity |
| QVQLVESGGGLVQAGGSLRLSCAATGIIFSWYDMGWYRQAPGKERELVAAITSGGSTYYADSVKGRFTISRDNAKNTVYLLMNSLKPEDTAVYYCNRYSYLFPYYWKYDYCGQGTQVTVSS | high polyreactivity |
| QVQLVESGGGLVQAGGSLRLSCAATGITFYINAMGSYRQAPGKERELVAVIDSRGSSTFYADSVKGRFTISLDYAKNTVYLQMNSLKPEDTAVYYCAVEGYPGRYRDPGDLYYYWGQGTQVTVSS | low polyreactivity |
